Measurements: patent US20070185311A1 (EPIX MEDICAL INC A DELAWARE, published 2007)
Starred links: 1 amine or outer side, 2 acyl side, 3 side chain; linkers in the order of their positions; H or OH if unused. Positions of bridges follow the written chain, without caps; N, C: chain ends. Non-standard residues stand in square brackets, D forms with d. No end group written: not given here. Phe(4-OMe) = COc1ccc(C[C@H](N[*:1])C(=O)[*:2])cc1; Phe(F5) = N[C@@H](Cc1c(F)c(F)c(F)c(F)c1F)C(=O)O; Bpa = N[C@@H](Cc1ccc(C(=O)c2ccccc2)cc1)C(=O)O; Ser(Bzl) = O=C([C@H](COCc1ccccc1)N[*:1])[*:2]; Tyr(3-Cl) = N[C@@H](Cc1ccc(O)c(Cl)c1)C(=O)O; Bip = N[C@@H](Cc1ccc(-c2ccccc2)cc1)C(=O)O; Tyr(3-F) = N[C@@H](Cc1ccc(O)c(F)c1)C(=O)O; Tyr(3-I) = N[C@@H](Cc1ccc(O)c(I)c1)C(=O)O; Phe(3-OMe) = COc1cccc(C[C@H](N)C(=O)O)c1; Phe(3-Me) = Cc1cccc(C[C@H](N)C(=O)O)c1; 2Nal = N[C@@H](Cc1ccc2ccccc2c1)C(=O)O; Hyp = O=C(O)[C@@H]1C[C@@H](O)CN1; hPhe = N[C@@H](CCc1ccccc1)C(=O)O; 2Pal = N[C@@H](Cc1ccccn1)C(=O)O; 4Pal = N[C@@H](Cc1ccncc1)C(=O)O; NDecylGly = CCCCCCCCCCNCC(=O)O; Phg = N[C@H](C(=O)O)c1ccccc1; Ad = adenosine base unit; Gu = guanosine base unit; Dht = not defined here; Taz = not defined here; Inp = O=C(O)C1CCNCC1

T1: DD(E) fragment of fibrin
T1 chain 1: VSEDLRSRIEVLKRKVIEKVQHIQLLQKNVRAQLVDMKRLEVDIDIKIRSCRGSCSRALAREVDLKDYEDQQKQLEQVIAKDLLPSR
T1 chain 2: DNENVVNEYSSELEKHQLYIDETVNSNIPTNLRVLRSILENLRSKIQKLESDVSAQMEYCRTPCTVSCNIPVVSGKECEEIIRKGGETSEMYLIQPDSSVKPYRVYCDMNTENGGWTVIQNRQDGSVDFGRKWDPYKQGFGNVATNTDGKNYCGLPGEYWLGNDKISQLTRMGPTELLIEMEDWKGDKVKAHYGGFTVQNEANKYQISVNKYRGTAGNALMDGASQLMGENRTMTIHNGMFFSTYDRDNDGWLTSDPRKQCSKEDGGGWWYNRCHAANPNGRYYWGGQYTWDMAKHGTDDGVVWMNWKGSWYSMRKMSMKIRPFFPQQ
T1 chain 3: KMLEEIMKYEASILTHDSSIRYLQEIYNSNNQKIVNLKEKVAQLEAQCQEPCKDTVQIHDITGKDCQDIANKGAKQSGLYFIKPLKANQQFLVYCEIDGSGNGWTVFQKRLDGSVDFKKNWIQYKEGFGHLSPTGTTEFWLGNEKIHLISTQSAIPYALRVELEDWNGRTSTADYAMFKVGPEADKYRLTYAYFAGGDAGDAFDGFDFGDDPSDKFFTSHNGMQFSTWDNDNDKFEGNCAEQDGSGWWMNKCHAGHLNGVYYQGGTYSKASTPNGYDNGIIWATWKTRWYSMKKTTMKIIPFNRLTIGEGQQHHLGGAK
T1 chain 4: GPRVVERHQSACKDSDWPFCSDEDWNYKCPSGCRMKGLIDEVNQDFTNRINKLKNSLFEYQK
T1 chain 5: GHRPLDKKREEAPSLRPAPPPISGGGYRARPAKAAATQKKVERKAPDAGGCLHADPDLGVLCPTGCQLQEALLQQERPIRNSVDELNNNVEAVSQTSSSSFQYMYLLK
T1 chain 6: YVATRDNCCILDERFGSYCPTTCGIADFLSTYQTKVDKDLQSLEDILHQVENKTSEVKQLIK

B1: F-(D-E)-C-Hyp-Y(3-Cl)-G-L-C-W-I-Q (peptide)
peptide: F[dE]C[Hyp][Tyr(3-Cl)]GLCWIQ
modifications: disulfide 3-8 (inferred)
B2: F-H-C-P-Y-D-L-C-H-I-L (peptide)
peptide: FHCPYDLCHIL
modifications: disulfide 3-8 (inferred)
B3: Y(26-Me)-H-C-Hyp-Y(3-I)-D-L-C-H-I (peptide)
peptide: [Tyr(26-Me)]HC[Hyp][Tyr(3-I)]DLCHI
modifications: disulfide 3-8 (inferred)
B4: L-P-C-D-Y-Y-G-T-C-MeL-Inp (peptide)
peptide: LPCDYYGTC[MeL][Inp]
modifications: cysteine pairing not given here
B5: F-H-C-Hyp-Y(3-I)-D-L-C-H-F(3-OMe) (peptide)
peptide: FHC[Hyp][Tyr(3-I)]DLCH[Phe(3-OMe)]
modifications: disulfide 3-8 (inferred)
B6: F(F5)-H-C-Hyp-Y(3-I)-D-L-C-H-I (peptide)
peptide: [Phe(F5)]HC[Hyp][Tyr(3-I)]DLCHI
modifications: disulfide 3-8 (inferred)
B7: Bip-H-C-Hyp-Y-D-L-C-H-I-L (peptide)
peptide: [Bip]HC[Hyp]YDLCHIL
modifications: disulfide 3-8 (inferred)
B8: F(4-OMe)-H-C-Hyp-Y-D-L-C-H-I-L (peptide)
peptide: [Phe(4-OMe)]HC[Hyp]YDLCHIL
modifications: disulfide 3-8 (inferred)
B9: F-H-C-Hyp-Y(3-F)-D-L-C-H-I-L (peptide)
peptide: FHC[Hyp][Tyr(3-F)]DLCHIL
modifications: disulfide 3-8 (inferred)
B10: (D-F)-(D-E)-C-Hyp-Y(3-Cl)-G-L-C-W-I-Q (peptide)
peptide: [dF][dE]C[Hyp][Tyr(3-Cl)]GLCWIQ
modifications: disulfide 3-8 (inferred)
B11: F-H-C-Hyp-Y(3-I)-D-L-C-4Pal-I (peptide)
peptide: FHC[Hyp][Tyr(3-I)]DLC[4Pal]I
modifications: disulfide 3-8 (inferred)
B12: L-P-C-D-Y-Y-G-T-C-n(Decyl)G-D (peptide)
peptide: LPCDYYGTC[NDecylGly]D
modifications: not fully specified; cysteine pairing not given here
B13: F-H-C-Hyp-Y(3-I)-D-L-C-Bpa-I (peptide)
peptide: FHC[Hyp][Tyr(3-I)]DLC[Bpa]I
modifications: disulfide 3-8 (inferred)
B14: Y-(D-E)-C-Hyp-Y(3-Cl)-G-L-C-W-I-Q (peptide)
peptide: Y[dE]C[Hyp][Tyr(3-Cl)]GLCWIQ
modifications: disulfide 3-8 (inferred)
B15: F-H-C-Hyp-Y(3-I)-D-L-C-Taz-I (peptide)
peptide: FHC[Hyp][Tyr(3-I)]DLC[Taz]I
modifications: disulfide 3-8 (inferred); reading uncertain; also: printed as F-H-C-Hyp-Y(3-I)-D-L-C-Taz-I
B16: Gu-H-C-Hyp-Y(3-I)-D-L-C-H-I (peptide)
peptide: [Gu]HC[Hyp][Tyr(3-I)]DLCHI
modifications: disulfide 3-8 (inferred)
B17: F(4-OMe)-H-C-Hyp-Y(3-I)-D-L-C-H-I-L (peptide)
peptide: [Phe(4-OMe)]HC[Hyp][Tyr(3-I)]DLCHIL
modifications: disulfide 3-8 (inferred)
B18: Y-E-C-Hyp-Y(3-Cl)-G-L-C-W-I-Q (peptide)
peptide: YEC[Hyp][Tyr(3-Cl)]GLCWIQ
modifications: disulfide 3-8 (inferred)
B19: W-E-C-P-Y-G-L-C-W-I-Q (peptide)
peptide: WECPYGLCWIQ
modifications: disulfide 3-8 (inferred)
B20: F-H-C-Hyp-Y(3-I)-D-L-C-Dht-I (peptide)
peptide: FHC[Hyp][Tyr(3-I)]DLC[Dht]I
modifications: disulfide 3-8 (inferred); reading uncertain; also: printed as F-H-C-Hyp-Y(3-I)-D-L-C-Dht-I
B21: F-H-C-P-Y(3-Cl)-D-L-C-H-I-L (peptide)
peptide: FHCP[Tyr(3-Cl)]DLCHIL
modifications: disulfide 3-8 (inferred)
B22: F-E-C-Hyp-Y(3-Cl)-G-L-C-W-I-Q (peptide)
peptide: FEC[Hyp][Tyr(3-Cl)]GLCWIQ
modifications: disulfide 3-8 (inferred)
B23: F-H-C-Hyp-Y(3-I)-D-L-C-2Pal-I (peptide)
peptide: FHC[Hyp][Tyr(3-I)]DLC[2Pal]I
modifications: disulfide 3-8 (inferred)
B24: F-H-C-Hyp-Y(3-I)-D-L-C-H-F(3-Me) (peptide)
peptide: FHC[Hyp][Tyr(3-I)]DLCH[Phe(3-Me)]
modifications: disulfide 3-8 (inferred)
B25: F-H-C-Hyp-Y(3-I)-D-L-C-H-nVal (peptide)
peptide: FHC[Hyp][Tyr(3-I)]DLCH[nVal]
modifications: disulfide 3-8 (inferred)
B26: F(4-OMe)-H(Bzl)-C-Hyp-Y(3-Cl)-D-L-C-H-Bpa (peptide)
peptide: [Phe(4-OMe)][His(Bzl)]C[Hyp][Tyr(3-Cl)]DLCH[Bpa]
modifications: disulfide 3-8 (inferred)
B27: L-P-C-D-Y-Y-G-T-C-n(Decyl)G-dD (peptide)
peptide: LPCDYYGTC[NDecylGly][dD]
modifications: not fully specified; cysteine pairing not given here
B28: Y(3-Cl)-H-C-Hyp-Y(3-I)-D-L-C-H-I (peptide)
peptide: [Tyr(3-Cl)]HC[Hyp][Tyr(3-I)]DLCHI
modifications: disulfide 3-8 (inferred)
B29: Ad-H-C-Hyp-Y(3-I)-D-L-C-H-I (peptide)
peptide: [Ad]HC[Hyp][Tyr(3-I)]DLCHI
modifications: disulfide 3-8 (inferred)
B30: F-H-C-Hyp-Y-D-L-C-H-Bpa (peptide)
peptide: FHC[Hyp]YDLCH[Bpa]
modifications: disulfide 3-8 (inferred)
B31: Hfe-H-C-Hyp-Y-D-L-C-H-I-L (peptide)
peptide: [hPhe]HC[Hyp]YDLCHIL
modifications: disulfide 3-8 (inferred)
B32: F-H-C-Hyp-Y(3-I)-D-L-C-H-Phg (peptide)
peptide: FHC[Hyp][Tyr(3-I)]DLCH[Phg]
modifications: disulfide 3-8 (inferred)
B33: F-H-C-Hyp-Y-D-L-C-H-I-L (peptide)
peptide: FHC[Hyp]YDLCHIL
modifications: disulfide 3-8 (inferred)
B34: F-H-C-Hyp-Y(3-Cl)-(2-Nal)-L-C-H-I-L (peptide)
peptide: FHC[Hyp][Tyr(3-Cl)][2Nal]LCHIL
modifications: disulfide 3-8 (inferred)
B35: H-E-C-Hyp-Y(3-Cl)-G-L-C-H-I-Q (peptide)
peptide: HEC[Hyp][Tyr(3-Cl)]GLCHIQ
modifications: disulfide 3-8 (inferred)
B36: W-E-C-Hyp-Y(3-Cl)-G-L-C-H-I-Q (peptide)
peptide: WEC[Hyp][Tyr(3-Cl)]GLCHIQ
modifications: disulfide 3-8 (inferred)
B37: T-(D-E)-C-Hyp-Y(3-Cl)-G-L-C-W-I-Q (peptide)
peptide: T[dE]C[Hyp][Tyr(3-Cl)]GLCWIQ
modifications: disulfide 3-8 (inferred)
B38: W-E-C-Hyp-Y(3-Cl)-G-L-C-F-I-Q (peptide)
peptide: WEC[Hyp][Tyr(3-Cl)]GLCFIQ
modifications: disulfide 3-8 (inferred)
B39: Y-E-C-Hyp-Y(3-Cl)-G-L-C-Y-I-Q (peptide)
peptide: YEC[Hyp][Tyr(3-Cl)]GLCYIQ
modifications: disulfide 3-8 (inferred)
B40: F-H-C-Hyp-Y(3-Cl)-F-L-C-H-I-L (peptide)
peptide: FHC[Hyp][Tyr(3-Cl)]FLCHIL
modifications: disulfide 3-8 (inferred)
B41: W-E-C-Hyp-Y(3-Cl)-G-L-C-Y-I-Q (peptide)
peptide: WEC[Hyp][Tyr(3-Cl)]GLCYIQ
modifications: disulfide 3-8 (inferred)
B42: F-H-C-Hyp-Y(3-Cl)-G-L-C-H-I-L (peptide)
peptide: FHC[Hyp][Tyr(3-Cl)]GLCHIL
modifications: disulfide 3-8 (inferred)
B43: S(Bzl)-H-C-P-Y-D-L-C-H-I-L (peptide)
peptide: [Ser(Bzl)]HCPYDLCHIL
modifications: disulfide 3-8 (inferred)
B44: S-(D-E)-C-Hyp-Y(3-Cl)-G-L-C-W-I-Q (peptide)
peptide: S[dE]C[Hyp][Tyr(3-Cl)]GLCWIQ
modifications: disulfide 3-8 (inferred)
B45: H-(D-E)-C-Hyp-Y(3-Cl)-G-L-C-W-I-Q (peptide)
peptide: H[dE]C[Hyp][Tyr(3-Cl)]GLCWIQ
modifications: disulfide 3-8 (inferred)

target: DD(E) fragment of fibrin; experiment: affinity to DD(E) fragment of fibrin

Kd	Binder
< 300 nM	B1
< 300 nM	B2
< 200 nM	B3
< 10000 nM	B4
< 100 nM	B5
< 100 nM	B6
< 500 nM	B7
< 400 nM	B8
< 100 nM	B9
< 200 nM	B10
< 200 nM	B11
< 10000 nM	B12
< 400 nM	B13
< 100 nM	B14
< 500 nM	B15
< 500 nM	B16
< 100 nM	B17

Kd	Binder
< 300 nM	B18
< 200 nM	B19
< 500 nM	B20
< 200 nM	B21
< 500 nM	B22
< 500 nM	B23
< 200 nM	B24
< 200 nM	B25
< 100 nM	B26
< 10000 nM	B27
< 100 nM	B28
< 400 nM	B29
< 300 nM	B30
< 500 nM	B31
< 200 nM	B32
< 500 nM	B33

Target: T1, DD(E) fragment of fibrin
Experiment: affinity to DD(E) fragment of fibrin

Kd	Binder
≤ 500 nM	B34
≤ 400 nM	B35
≤ 200 nM	B36
≤ 200 nM	B37
≤ 200 nM	B38
≤ 200 nM	B39
≤ 500 nM	B40
≤ 300 nM	B41
≤ 400 nM	B42
≤ 400 nM	B43
≤ 200 nM	B44
≤ 200 nM	B45
